Data on one molecule can be found in US20240082304A1 (published 2024).

This assay has as its target T1, CT83 peptide on HLA-A2 (human).
T1 peptide: KLVELEHTL
Put plainly: killing.

B1: A2-CT83 TCR (TCR, V domains shown)
Valpha: GEDVEQSLFLSVREGDSSVINCTYTDSSSTYLYWYKQEPGAGLQLLTYIFSNMDMKQDQRLTVLLNKKDKHLSLRIADTQTGDSAIYFCAEKSGYSGAGSYQLTFGKGTKLSVIP
Vbeta: SAVISQKPSRDICQRGTSLTIQCQVDSQVTMMFWYRQQPGQSLTLIATANQGSEATYESGFVIDKFPISRPNLTFSTLTVSNMSPEDSSIYLCSVQDSEAFFGQGTRLTVV
Consider B1, for which the binding result is “recognises”.
